# B1: ASIC1a-ΔCCt (H8-hASIC1a-C466A/C471A/C497A/C528Stop) [human] / itself (parent)
# chain: MELKAEEEEVGGVQPVSIQAFASSSTLHGLAHIFSYERLSLKRALWALCFLGSLAVLLCVCTERVQYYFHYHHVTKLDEVAASQLTFPAVTLCNLNEFRFSQVSKNDLYHAGELLALLNNRYEIPDTQMADEKQLEILQDKANFRSFKPKPFNMREFYDRAGHDIRDMLLSCHFRGEVCSAEDFKVVFTRYGKCYTFNSGRDGRPRLKTMKGGTGNGLEIMLDIQQDEYLPVWGETDETSFEAGIKVQIHSQDEPPFIDQLGFGVAPGFQTFVACQEQRLIYLPPPWGTCKAVTMDSDLDFFDSYSITACRIDCETRYLVENCNCRMVHMPGDAPYCTPEQYKECADPALDFLVEKDQEYCVCEMPCNLTRYGKELSMVKIPSKASAKYLAKKFNKSEQYIGENILVLDIFFEVLNYETIEQKKAYEIAGLLGDIGGQMGLFIGASILTVLELFDYAYEVIKHKLARRGKAQKEAKRSSADKGVALSLDDVKRHNPAESLRGHPAGMTYAANILPHHPARGTFEDFT
# Variants of: B1
# Assay: BMOE crosslinking at the cell surface, SDS-PAGE under reducing conditions, anti-His-tag western blotting, band densitometry
# Settings: with itself; mean ±SEM, n = 4; read off a plot
row,Variant,relative band intensity (densitometry)
1,chain 1 G433C C59V C61S,0.18
2,chain 1 G433C C59V,0.22

# — article PMC4529235
